Experimental data from patent publication US20250282874A1 (SUZHOU TRANSCENTA THERAPEUTICS, published 2025).
Read-outs that look alike come from different tables or passages of the source.

Columns and labels:
[1] = molecular target: T1, human PD-L1 expressed on cells (human, UniProt Q9NZQ7 19-290); assay: cell-based or functional assay
[2] = molecular target: T1, human PD-L1 expressed on cells; assay: cell-based or functional assay; remark: listed apart in the source
[3] = molecular target: T1, human PD-L1 expressed on cells; assay: cell-based or functional assay; remark: listed apart in the source
[4] = molecular target: T1, human PD-L1 expressed on cells; assay: flow cytometry on NCI-H292 cells, Mean FITC-A
[5] = molecular target: T1, human PD-L1 expressed on cells; assay: flow cytometry on NCI-H460 cells, Mean FITC-A
[6] = molecular target: T2, hPD-L1 (Acro Biosystems, PD1-H5229) (human, UniProt Q9NZQ7 19-238); assay: ELISA, hPD-L1 coated, anti-human Fc-HRP, OD450
T2 construct: also called human PD-L1; hPD-L1 protein

[7] = molecular target: T2, hPD-L1 (Acro Biosystems, PD1-H5229); assay: ELISA, hPD-L1 coated, anti-human Fc-HRP, OD450; remark: listed apart in the source
Experimental: Then 300 μL of 2% (w/v) BSA was added for blocking at room temperature for 1 h. […] After incubation at room temperature for 1 h, mixed TMB substrate reagent (InnoReagents, TMB-S-003) was added and incubated at room temperature for 5 min, and stopped by adding 0.1M H₂SO₄. OD450 nm was recorded by Microplate Reader. The data was analyzed by Graphpad prism.

[8] = molecular target: T1, human PD-L1 expressed on cells; assay: flow cytometry on MC38/hPD-L1 cells, Mean FITC-A
[9] = molecular target: T1, human PD-L1 expressed on cells; assay: flow cytometry on EMT6/hPD-L1 cells, Mean FITC-A
[10] = molecular target: T1, human PD-L1 expressed on cells; assay: flow cytometry on activated human T cells, Mean FITC-A
[11] = molecular target: T1, human PD-L1 expressed on cells; assay: flow cytometry on 293T-PD-L1-CD3L cells, Mean FITC-A as printed
Experimental: The cell was transfected with both human PD-L1 and anti-CD3 scFv. […] After centrifugation and removing the supernatant, the diluted antibodies were added to the plate and incubated in 4° C. for 30 min. […] After washing, cells were resuspended in 200 μL PBS and analyzed by flow cytometry. The data was analyzed by Graphpad prism.

[12] = molecular target: T1, human PD-L1 expressed on cells; assay: flow cytometry on PHA-activated human PBMC (T cells), Mean APC-A
Experimental: Human PBMC (TPCS, Cat #PB025C) was recovered from liquid nitrogen and resuspended in RPMIi640 with 10% FBS. 5 μg/mL PHA (Sigma, Cat #L8902) was added to stimulate PBMC activation and cells were cultured for 3 days. […] After centrifugation and removal of the supernatant in the plate, the diluted antibodies were added to the plate with the activated PBMC and incubated in 4° C. for 1 hour. […] After washing, cells were resuspended in 150 μL PBS and analyzed by flow cytometry.

[13] = molecular target: T1, human PD-L1 expressed on cells; assay: flow cytometry on 293T-PD-L1-CD3L cells, PE anti-human IgG, Mean PE-A
Experimental: After centrifugation and removing the supernatant, the diluted antibodies were added to the plate and incubated in 4° C. for 30 min. […] After washing, cells were resuspended in 200 μL PBS and analyzed by flow cytometry. The data was analyzed by Graphpad prism.

[14] = molecular target: cynomolgus PD-L1 on activated cynomolgus T cells (cynomolgus, UniProt G7PSE7 19-290); assay: flow cytometry on PHA-activated cynomolgus PBMC (T cells), Mean APC-A
Experimental: Human or cynomolgus PBMC (TPCS, Cat #PB025C) was recovered from liquid nitrogen and resuspended in RPMIi640 with 10% FBS. 5 μg/mL PHA (Sigma, Cat #L8902) was added to stimulate PBMC activation and cells were cultured for 3 days. […] After centrifugation and removal of the supernatant in the plate, the diluted antibodies were added to the plate with the activated PBMC and incubated in 4° C. for 1 hour. […] After washing, cells were resuspended in 150 μL PBS and analyzed by flow cytometry.

human TGFβ1 = molecular target: T3, human TGFβ1 (human, UniProt P01137 279-390); assay: bridging ELISA, hTGFβ-1 coated, detected with hPD-L1-biotin and streptavidin-HRP
T3 construct: also called hTGFβ-1; TGFb1
Experimental: 0.5 μg/mL hTGFβ-1 was coated to the ELISA plate and left overnight at 4° C. Then 300 µL of blocking buffer was added for blocking at room temperature for 1 h. […] 1h later, 100 μL HRP-conjugated streptavidin (1:5000) was added. After incubation at room temperature for 1 h, mixed TMB substrate reagent (InnoReagents, TMB-S-003) was added and incubated at room temperature for 5 min, and stopped by adding 0.1M H₂SO₄. OD450 nm was recorded by Microplate Reader.

human PD-L1-Fc = molecular target: T4, human PD-L1-Fc (human, UniProt Q9NZQ7 19-239); assay: competition ELISA, hPD-L1-Fc coated; blocked ligand hPD-1-Fc-biotin, OD450
T4 construct: also called hPD-L1-Fc; human PD-L1-Fc (Sino Biological, 70110-D02H); not shown: Fc part

cynoPD-L1-Fc = cynoPD-L1-Fc (cynomolgus, UniProt G7PSE7 19-238, Fc carrier is left out of the letters.); assay: competition ELISA, cynoPD-L1-Fc coated; blocked ligand cyno PD-1-Fc-biotin, OD450
cynoPD-L1-Fc, sequence (G7PSE7 entry or part of it limits assumed): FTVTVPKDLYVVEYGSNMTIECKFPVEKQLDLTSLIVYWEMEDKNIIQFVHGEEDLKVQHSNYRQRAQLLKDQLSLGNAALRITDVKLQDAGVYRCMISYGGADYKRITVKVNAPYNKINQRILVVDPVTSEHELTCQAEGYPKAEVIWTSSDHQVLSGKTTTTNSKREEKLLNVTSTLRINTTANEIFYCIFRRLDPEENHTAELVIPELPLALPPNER
Experimental: 300 μL of 3% (w/v) skim milk was added for blocking at room temperature for 1 h. […] 0.5% PBS+Tween-20 were used for washing for 3 times, and 100 μL HRP-conjugated streptavidin (1:5000) was added.

T3 sequence (P01137 279-390 limits assumed): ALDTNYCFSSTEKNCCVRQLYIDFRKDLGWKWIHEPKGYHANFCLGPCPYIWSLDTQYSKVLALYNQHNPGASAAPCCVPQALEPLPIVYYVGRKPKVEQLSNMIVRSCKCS
cynomolgus PD-L1 on activated cynomolgus T cells, sequence (G7PSE7 entry or part of it limits assumed): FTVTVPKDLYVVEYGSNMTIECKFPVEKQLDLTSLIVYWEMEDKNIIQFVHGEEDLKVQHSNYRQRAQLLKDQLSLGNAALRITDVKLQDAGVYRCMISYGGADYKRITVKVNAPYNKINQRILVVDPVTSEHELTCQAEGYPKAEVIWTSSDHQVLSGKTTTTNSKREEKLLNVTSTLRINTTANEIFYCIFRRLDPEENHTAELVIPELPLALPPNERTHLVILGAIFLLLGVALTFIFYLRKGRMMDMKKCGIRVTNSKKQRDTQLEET

IC50 (so in the source), NFAT-luciferase luminescence, hPD-L1/hPD-1 reporter cell assay [1]: 714 pM | IC50 (so in the source), NFAT-luciferase luminescence, 293T-PD-L1-CD3L cells with Jurkat-NFAT-Luc-PD1 cells [2]: 1080 pM | IC50 (so in the source), luminescence (axis printed OD450), 293T-PD-L1-CD3L cells with Jurkat-NFAT-Luc-PD1 cells [3]: 994 pM | EC50 [4]: 199 pM | EC50 [5]: 222 pM | EC50 [6]: 31.3 pM | EC50 [7]: 11.4 pM | EC50 [8]: 299 pM | EC50 [9]: 240 pM | EC50 [10]: 160 pM | EC50 [11]: 774 pM | EC50 [12]: 267 pM | EC50 [13]: 903 pM | EC50 [14]: 684 pM | binding result (human TGFβ1): no binding (tested: 100 nM) | IC50 (human PD-L1-Fc): 2280 pM | IC50 (cynoPD-L1-Fc): 2060 pM
B1: AM4B6-hIgG1 monoclonal antibody (antibody, V domains shown)
VH: QVQLVQSGAEVKKPGASVKVSCKASGYVFTDYYMNWVRQAPGQSLEWMGDINPNNAETLYNHKFKGRVTVTVDKSISTAYMELSRLRSDDTAVYYCVKWGDGPFAYWGQGTLVTVSS
VL: DIQMTQSPSSLSASVGDRVTITCKASQNVGAAVAWYQQKPGKAPKLLIYSVSDRYTGVPSRFSGSGSGTDFTLTISSLQPEDIATYYCQQYSNYPTFGQGTKLEIK
notes: hIgG1; also called AM4B6 mAb; AM4B6 monoclonal antibody
